Results on 2 molecules are retold here after US7528244 (Amgen, dated 2009).

Experiment [1] deals with T1, CrmA (UniProt P07385 1-341).
T1 construct: also called Myc-CrmA
Kind of experiment: co-transfection and co-immunoprecipitation in mammalian cells.

The target of experiment [2] is T2, Casper (192-480) (human, UniProt O15519 192-480).
T2 construct: also called C-terminal protease-like domain of Casper
Kind of experiment: anti-Flag immunoprecipitation, caspase-3 immunoblot, 293 cells. For orientation: Immunoblotting shows a protein as a band on a membrane.

Experiment [3] has as its target T2, Casper (192-480). Kind of experiment: co-immunoprecipitation in 293 cells.

T2 sequence (O15519 192-480): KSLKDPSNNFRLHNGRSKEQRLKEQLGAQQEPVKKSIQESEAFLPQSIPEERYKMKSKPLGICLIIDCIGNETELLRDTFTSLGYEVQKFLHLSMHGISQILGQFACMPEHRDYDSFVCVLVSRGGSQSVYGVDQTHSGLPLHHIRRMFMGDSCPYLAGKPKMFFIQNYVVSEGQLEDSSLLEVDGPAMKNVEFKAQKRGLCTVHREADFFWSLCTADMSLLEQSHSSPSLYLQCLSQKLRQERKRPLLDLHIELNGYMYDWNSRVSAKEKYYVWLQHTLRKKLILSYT

B1: caspase-3 (enzyme, UniProt P42574 1-277, looked up)
chain: MENTENSVDSKSIKNLEPKIIHGSESMDSGISLDNSYKMDYPEMGLCIIINNKNFHKSTGMTSRSGTDVDAANLRETFRNLKYEVRNKNDLTREEIVELMRDVSKEDHSKRSSFVCVLLSHGEEGIIFGTNGPVDLKKITNFFRGDRCRSLTGKPKLFIIQACRGTELDCGIETDSGVDDDMACHKIPVEADFLYAYSTAPGYYSWRNSKDGSWFIQSLCAMLKQYADKLEFMHILTRVNRKVATEFESFSFDATFHAKKQIPCIVSMLTKELYFYH
notes: also called caspase-3 precursor
Regarding B1, the binding result in experiment [1] is listed as “no binding”; in experiment [2], “binds”.

B2: FADD (other, UniProt Q13158 1-208, looked up)
chain: MDPFLVLLHSVSSSLSSSELTELKFLCLGRVGKRKLERVQSGLDLFSMLLEQNDLEPGHTELLRELLASLRRHDLLRRVDDFEAGAAAGAAPGEEDLCAAFNVICDNVGKDWRRLARQLKVSDTKIDSIEDRYPRNLTERVRESLRIWKNTEKENATVAHLVGALRSCQMNLVADLVQEVQQARDLQNRSGAMSPMSWNSDASTSEAS
notes: also called Flag-tagged FADD; AU1-tagged FADD
In the case of B2, the binding result in experiment [3] is given as “no binding”.
